This passage reports Kd results from the Immune Epitope Database (IEDB).

Some targets named below: HLA-A*03:01; HLA-A*11:01; HLA-A*31:01; HLA-A*33:01; HLA-A*68:01.
Assay in all cases: IEDB peptide-MHC binding, purified MHC/competitive/radioactivity; filed as Kd, often an IC50 or EC50 that approximates it; ≥ and ≤ were set here for values at or beyond the usual limits of such assays
Setting [1] is: source organism: Vaccinia virus WR.
Setting [2] is: source organism: SARS coronavirus Tor2.
Setting [3] is: source organism: Mammarenavirus juninense.
Setting [4] is: source organism: Lymphocytic choriomeningitis virus (strain Armstrong).

Usually Kd stands for the equilibrium constant for the complex coming apart. Consider KLDDVEKEK, for which the Kd with HLA-A*03:01 (setting [1]) is 0.404 µM; with HLA-A*11:01 (setting [1]), 0.292 µM; with HLA-A*31:01 (setting [1]) it was 4.77 µM; in the experiment with HLA-A*33:01 (setting [1]), at least 77.7 µM; with HLA-A*68:01 (setting [1]) it was at least 59.9 µM.
For KLVKSLVDK, the dissociation constant (Kd) in the experiment with HLA-A*03:01 (setting [1]) was 0.0345 µM; with HLA-A*11:01 (setting [1]), 0.0734 µM; in the experiment with HLA-A*31:01 (setting [1]), at least 41.3 µM; with HLA-A*33:01 (setting [1]), at least 77.7 µM; with HLA-A*68:01 (setting [1]) it was at least 77.7 µM.
Consider KQIANQFNK, for which the Kd with HLA-A*03:01 (setting [2]) was 0.108 µM; with HLA-A*11:01 (setting [2]), 0.138 µM; with HLA-A*31:01 (setting [2]) it was 0.0242 µM; with HLA-A*33:01 (setting [2]), at least 77.7 µM; with HLA-A*68:01 (setting [2]) it was 9.99 µM.
As for KSIIIPFIAY, the Kd was 0.968 µM in the experiment with HLA-A*03:01 (setting [1]); 0.249 µM with HLA-A*11:01 (setting [1]); 1.37 µM in the experiment with HLA-A*31:01 (setting [1]); at least 31.7 µM with HLA-A*33:01 (setting [1]); 17.6 µM in the experiment with HLA-A*68:01 (setting [1]).
For KSINKVYGR, the Kd with HLA-A*03:01 (setting [1]) was 0.368 µM; with HLA-A*11:01 (setting [1]) it was 0.00238 µM; with HLA-A*31:01 (setting [1]), 0.00104 µM; with HLA-A*33:01 (setting [1]), 3.41 µM; in the experiment with HLA-A*68:01 (setting [1]), 0.0154 µM.
The matching figures for LFHGGEPIK: 0.719 µM, 0.766 µM, at least 77.9 µM, at least 77.7 µM and 5.11 µM.
On to LFYTFAISY, for which the Kd is at least 48.4 µM with HLA-A*03:01 (setting [1]); at least 20.1 µM in the experiment with HLA-A*11:01 (setting [1]); at least 77.9 µM in the experiment with HLA-A*31:01 (setting [1]); at least 77.7 µM with HLA-A*33:01 (setting [1]); at least 43.3 µM with HLA-A*68:01 (setting [1]).
Consider LSEYETMVDY, for which the Kd is 5.27 µM in the experiment with HLA-A*03:01 (setting [1]); 16 µM with HLA-A*11:01 (setting [1]); at least 70 µM with HLA-A*31:01 (setting [1]); at least 70 µM with HLA-A*33:01 (setting [1]); at least 70.2 µM with HLA-A*68:01 (setting [1]).
For LVKSYSLIR, the Kd came to 15.6 µM with HLA-A*03:01 (setting [1]); 1.49 µM with HLA-A*11:01 (setting [1]); 0.0184 µM with HLA-A*31:01 (setting [1]); 1.69 µM with HLA-A*33:01 (setting [1]); 0.816 µM in the experiment with HLA-A*68:01 (setting [1]).
Regarding MLFTSTNDK, the Kd is 0.00547 µM with HLA-A*03:01 (setting [1]); 0.02 µM in the experiment with HLA-A*11:01 (setting [1]); 18.4 µM with HLA-A*31:01 (setting [1]); at least 77.7 µM with HLA-A*33:01 (setting [1]); 0.0262 µM in the experiment with HLA-A*68:01 (setting [1]).
On to MQGAVDINR, for which the equilibrium dissociation constant (Kd) was at least 23.1 µM in the experiment with HLA-A*03:01 (setting [2]); 0.631 µM in the experiment with HLA-A*11:01 (setting [2]); 0.412 µM with HLA-A*31:01 (setting [2]); at least 37.4 µM with HLA-A*33:01 (setting [2]); 0.344 µM with HLA-A*68:01 (setting [2]).
Take MVGLLSNSPH: the Kd with HLA-A*03:01 (setting [3]) is at least 30 µM; with HLA-A*11:01 (setting [3]) it was at least 41.4 µM; with HLA-A*31:01 (setting [3]), 2.89 µM; with HLA-A*33:01 (setting [3]), 4.28 µM; with HLA-A*68:01 (setting [3]), 0.661 µM.
With NACSANNSHH, the Kd is at least 70 µM with HLA-A*03:01 (setting [4]); at least 69.7 µM with HLA-A*11:01 (setting [4]); at least 70 µM with HLA-A*31:01 (setting [4]); at least 70 µM with HLA-A*33:01 (setting [4]); 4.71 µM with HLA-A*68:01 (setting [4]).
Turning to NMVSDTIMKR, the Kd in the experiment with HLA-A*03:01 (setting [1]) is 4.18 µM; with HLA-A*11:01 (setting [1]), 0.12 µM; with HLA-A*31:01 (setting [1]), 0.307 µM; in the experiment with HLA-A*33:01 (setting [1]) it was 0.827 µM; in the experiment with HLA-A*68:01 (setting [1]) it was 0.092 µM.
The matching figures for NSKYSYELY: at least 33 µM, 10.4 µM, at least 51.1 µM, at least 46.7 µM and 0.0102 µM.
For NSSAVVDNK the same measures were 8.23 µM, 0.195 µM, at least 30.6 µM, at least 77.7 µM and 0.0441 µM.
As to NVFKAMETFK, the Kd in the experiment with HLA-A*03:01 (setting [1]) was 0.0272 µM; in the experiment with HLA-A*11:01 (setting [1]) it was 0.0137 µM; with HLA-A*31:01 (setting [1]), 0.063 µM; in the experiment with HLA-A*33:01 (setting [1]), 0.234 µM; with HLA-A*68:01 (setting [1]) it was 0.00132 µM.
Regarding PLFDFVNEK, the Kd worked out at 1.94 µM in the experiment with HLA-A*03:01 (setting [1]); 0.413 µM with HLA-A*11:01 (setting [1]); 1.22 µM with HLA-A*31:01 (setting [1]); 5.52 µM with HLA-A*33:01 (setting [1]); 0.222 µM in the experiment with HLA-A*68:01 (setting [1]).
Consider PLHILASNKK, for which the Kd with HLA-A*03:01 (setting [1]) is 1.48 µM; in the experiment with HLA-A*11:01 (setting [1]), 3.42 µM; with HLA-A*31:01 (setting [1]), 7.7 µM; with HLA-A*33:01 (setting [1]), at least 70 µM; in the experiment with HLA-A*68:01 (setting [1]), at least 21.9 µM.
With PMVIENGILK, the Kd with HLA-A*03:01 (setting [1]) was 10.2 µM; in the experiment with HLA-A*11:01 (setting [1]) it was 0.216 µM; with HLA-A*31:01 (setting [1]), at least 24.1 µM; with HLA-A*33:01 (setting [1]) it was at least 70 µM; with HLA-A*68:01 (setting [1]), 0.292 µM.
The matching figures for PVLKAMHDK: 0.645 µM, 0.879 µM, at least 67.4 µM, at least 77.7 µM and 2.52 µM.
Consider QLLRLMADK, for which the Kd is 0.0619 µM in the experiment with HLA-A*03:01 (setting [1]); 0.349 µM with HLA-A*11:01 (setting [1]); 2.57 µM with HLA-A*31:01 (setting [1]); at least 46.2 µM with HLA-A*33:01 (setting [1]); at least 21.9 µM with HLA-A*68:01 (setting [1]).
QQWIQFMMSR: the Kd turned out to be 12.5 µM with HLA-A*03:01 (setting [2]); 7.8 µM in the experiment with HLA-A*11:01 (setting [2]); 0.127 µM with HLA-A*31:01 (setting [2]); 1.45 µM in the experiment with HLA-A*33:01 (setting [2]); 6.64 µM in the experiment with HLA-A*68:01 (setting [2]).
